# Experimental data taken from the supplement of paper PMC9170038.
# System: MS2 coat protein
# Experiment: apparent KD of MS2 coat protein; higher = weaker reporter binding
# Details: Eterna round: R107; input ligand: theophylline 20 uM
# Procedure, shortened: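 Apparent KD was obtained for each design as the median of normalised binding-curve fits over its clusters. RNA switches transcribed on-chip from Illumina sequencing clusters were titrated with SNAP-549-labelled MS2 coat protein (twofold steps, 0.7 or 1.5 nM to 3 µM) in 100 mM Tris-HCl pH 7.5, 80 mM KCl, 4 mM MgCl2, without or with constant ligand.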
row,Sequence,apparent KD of MS2 coat protein [nM]
1,UUAUGCAGGUCGGCCGCCACUACACACAUGAGGAUCACCCAUGUAGUUACUGGGUGAAGUGGCAGUAGGACCGGGACCCGCACAU [Brourdmod21],388
2,UCGUGUAUUUCGGAUACCAGUGAAAUCGAUACAUGAGGAUCACCCAUGUGAGAGGAUGUACACCCUUGGCAGCUGUCUGUAUCUG [cxezmullin],20.2
3,UUAUUUAUAGGCGAUACCAGCCGAAUGGCCGCAAAUCCUAACAUGAGGAUCACCCAUGUCGGCCCUUGGCAGCGCCUAUGGGUUU [XTheo B #27],255
4,UAACGGCACUGAAGGAGCGAGUUGACAAACAUGAGGAUCACCCAUGUUAUGGGUUGUUAAUCUCAGGUAGGUCGCAGUUGUCGUA [Same State Arginine B GF 20],387
5,GCACAUGAGGAUCACCCAUGUACAACUGAAGGAGCGAGACAGAACUCAGGUAGGUCGCAGACUGCACAAUUGCGGACGACAUGGG [Exclusion Arginine A GF21],44.1
6,CUGGACAUGAGGAUCACCCAUGUAAAUCCUCGAGGACCGGUACGGCCGCCACUCGAACGAGUGGCACGCGAGUGCGCACUCGCGU [aLa],45.6
7,ACUAGUUGUGCAGAUACCAGACAUGAGGAUCACCCAUGUUUGGGAUCUUCGGAUCUUCCUGUCCCUUGGCAGCUGUACAUCUAGA [Omei Theo B Exc v3],178
8,ACAUUGCGCUCGGCCGCCACUGGCUAUAGAUUUAUAGCAUUAAUGAACAUGAGGAUCACCCAUGUCAGGACCGGGAGCGAACCAU [SSTryp B #8],17.2
9,GCUAGGUCUACGGCCGCCACUAGACGUGGGUAAGACAUGAGGAUCACCCAUGUACUACAGGCGGAUAGGACCGGGUAGACCUAGC [SSTB NP+V+V2 #13 +-Same Structure],159
10,CUGGACAUGAGGAUCACCCAUGUAAAUCCUCGAGGACCGGUACGGCCGCCACUCGAACGAGUGGCGCGCGAGCGCGCGCUCGCGC [aJa],80.3
11,AGAUGUAGCGGAAGGAGCGACUUGAGGAUCACCCAAGUCUCCCGUUGUGGGAGUUCCUUAGGUCAGGUAGGUCGCCGUUACGUCA [Omei Arg B SS B v3],154
12,UCUCAAGGCCGCUCGGUGCUCCCUGGUGAUACCAGCCAUAUAUCCGGCCCUUGGCAGCACAUGAGGAUCACCCAUGUAGCAGGCG [Sorimaat],41.6
13,UUAUAAGCACCUGAUACCAGUAUGAACCCGUACAUGAGGAUCACCCAUGUUAAUUUCUAUUACCCUUGGCAGCAGCCUUUUUCCU [theeternabot_sameState_MS2_Theo_B_2],28.8
14,UGUCCGUGAUCGGCCGCCACUCAACAAACCUGUGGAAACUGACAUGAGGAUCACCCAUGUUCUUGGAGGACCGGGAUUGCUUCGA [theeternabot_sameState_MS2_Trp_B_4],19.7
15,UUUACAUGAGGAUCACCCAUGUGCCAUGAUACCAGACAUGAAAAUGUCCCUUGGCAGCAUGAAUAAUCCUCGUCGGGAAACCGAC [Lisen],195
16,UGUAUGUGAUUUGAUACCAGAUCAGCUGGUUAUACAUGAGGAUCACCCAUGUUACUUUGGGUCCCUUGGCAGCAAAUCGCAUACU [SSTheo B #26],355
17,UUAAAUGUGACGGAUACCAGCGUGUUGUAGAACAUGAGGAUCACCCAUGUAGUGAUCAUGCGCCCUUGGCAGCUGGUAUGUUUGA [7.aA],543
18,AUCGUACCUGGUGAUACCAGCAAUUGCUCGUGACAUGAGGAUCACCCAUGUGACCAGUGAUGCCCUUGGCAGCAUGGUCGGUGCA [Same State - Theophylline B (Freestyle 23)],65.3
19,CCUGAUAACUGAAGGAGCGAGAAACCCUACAUGAGGAUCACCCAUGUAUACACGGGAACUUCUCAGGUAGGUCGCAGUUUGUCAG [Adiso],165

# Same assay, conditions: Eterna round: R107; input ligand: theophylline 2 mM
row,Sequence,apparent KD of MS2 coat protein [nM]
1,CCUAUGCAGUCGGCCGCCACUGAGUCCUCAAUAAUAAAUUAAUAUACAUGAGGAUCACCCAUGUACAGGACCGGGACUGUAUAGG [Ex Tryptophan B 13],215
2,AGCUCGCGAAAGCGAGCAACAUGAUCCGAAGGAGCGGGCGAAAGCCCAGGUAGGUCGCGGACAUGAGGAUCACCCAUGUCUCCUU [MAT - Exclusion Arginine A - Mod of Eli - D13],94.8
3,UUGGGUUUGUGAAGGAGCGGGAAAGUUUUAUAGUGGAUCCUAACAUGAGGAUCACCCAUGUCCCAGGUAGGUCGCGCGGGUUUGG [12.R],152
4,ACAUUUAACUGAAGGAGCGUGAUAUACAUGAGGAUCACCCAUGUGUCUUACAUGAAUAAUUCACAGGUAGGUCGCAGACUAAUGA [JR_ExcArginiB_Sub009],39.4
5,GGGCACAUGAGGAUCACCCAUGUCCAACGGCGAGGACCGGUACGGCCGCCACUCGGUAUAAGCUUCGAAAAGGAGGAUCCUGCAG [theeternabot_sameState_MS2_Trp_A_35],47.7
6,UGUAUGUGAUCUGAUACCAGCUAGCGGAAACGCAAGCUUGAGGAUCACCCAAGUGGAAUAAGCCCUUGGCAGCAGAUCGCAUACU [Denovo 5 #StaticStem #AlternativeMS2],15.8
7,UUCAAAGGGAACGGUGCUGGUGACAGAGAUACCAGAGUAGUAAUACUCCCUUGGCAGCUCAGAACAUGAGGAUCACCCAUGUAAU [Exclusion Theophylline A GF22],59.2
8,UGUGGGCGCACGGCCGCCACUGUCUUCAUCUGUUUGUCUACAUGAGGAUCACCCAUGUUGGUUUACAGGACCGGGUGCAUCUAUG [SSTryp B #12],52.1
9,GUAGCGACGGCGGCCGCCACUCGCACGUGAGGGUAGACCAACCUUCACAUGAGGAUCACCCAUGUGAGGACCGGGCUGUCGCUAC [#15 Exclusion Tryptophan B],25.4
10,GAAUUUUAUUGAAGGAGCGUCGAAAAUGGGUAAACAUGAGGAUCACCCAUGUAAAGGGAACGACAGGUAGGUCGCAAUAGGAUUC [AstromonsSSArgB#28],247
11,UGUAUGUGAUUUGAUACCAGACCAGCUGGUGGUACAUGAGCAUCAGCCAUGUAGGUUUGGGUCCCUUGGCAGCAAAUCGCAUACU [SS Theo B #24 Ms2],19.3
12,UUAUGCAGGUCGGCCGCCACUACACACAUGAGGAUCACCCAUGUAGUUACUGGGUGAAGUGGCAGUAGGACCGGGACCCGCACAU [Brourdmod21],612
13,UUAUUUAUAGGCGAUACCAGCCGAAUGGCCGCAAAUCCUAACAUGAGGAUCACCCAUGUCGGCCCUUGGCAGCGCCUAUGGGUUU [XTheo B #27],480
14,UAACGGCACUGAAGGAGCGAGUUGACAAACAUGAGGAUCACCCAUGUUAUGGGUUGUUAAUCUCAGGUAGGUCGCAGUUGUCGUA [Same State Arginine B GF 20],511
15,GCACAUGAGGAUCACCCAUGUACAACUGAAGGAGCGAGACAGAACUCAGGUAGGUCGCAGACUGCACAAUUGCGGACGACAUGGG [Exclusion Arginine A GF21],40.9
16,CUGGACAUGAGGAUCACCCAUGUAAAUCCUCGAGGACCGGUACGGCCGCCACUCGAACGAGUGGCACGCGAGUGCGCACUCGCGU [aLa],36.2
17,ACAUUGCGCUCGGCCGCCACUGGCUAUAGAUUUAUAGCAUUAAUGAACAUGAGGAUCACCCAUGUCAGGACCGGGAGCGAACCAU [SSTryp B #8],13.2
